Data from patent US20240067734A1 (Hoffmann-La Roche, published 2024).
Where two headings read alike, the source gives them in different places.

Legend:
[1] = target: T1, human NKG2D expressed on cells (human, UniProt P26718 1-216); assay: flow cytometry on NKG2D-positive NK92 cells, anti-human Fc secondary antibody
T1 construct: the cell type is named under assay; also called NKG2D on NK92 cells; HEK293T human NKG2D
T1 chain: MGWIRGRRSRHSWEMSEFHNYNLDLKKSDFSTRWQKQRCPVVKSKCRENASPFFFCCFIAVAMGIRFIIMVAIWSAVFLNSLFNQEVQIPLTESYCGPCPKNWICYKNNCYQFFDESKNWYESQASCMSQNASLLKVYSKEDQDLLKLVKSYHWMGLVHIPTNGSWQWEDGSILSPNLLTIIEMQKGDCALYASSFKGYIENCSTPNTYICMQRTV

[2] = target: T2, CEA expressed on LS180 tumor cells (human, UniProt P06731 35-685); assay: flow cytometry on CEA-positive LS180 cells, anti-human Fc secondary antibody
T2 construct: whole, on cells; also called carcinoembryonic antigen; CEACAM5
T2 sequence (looked up): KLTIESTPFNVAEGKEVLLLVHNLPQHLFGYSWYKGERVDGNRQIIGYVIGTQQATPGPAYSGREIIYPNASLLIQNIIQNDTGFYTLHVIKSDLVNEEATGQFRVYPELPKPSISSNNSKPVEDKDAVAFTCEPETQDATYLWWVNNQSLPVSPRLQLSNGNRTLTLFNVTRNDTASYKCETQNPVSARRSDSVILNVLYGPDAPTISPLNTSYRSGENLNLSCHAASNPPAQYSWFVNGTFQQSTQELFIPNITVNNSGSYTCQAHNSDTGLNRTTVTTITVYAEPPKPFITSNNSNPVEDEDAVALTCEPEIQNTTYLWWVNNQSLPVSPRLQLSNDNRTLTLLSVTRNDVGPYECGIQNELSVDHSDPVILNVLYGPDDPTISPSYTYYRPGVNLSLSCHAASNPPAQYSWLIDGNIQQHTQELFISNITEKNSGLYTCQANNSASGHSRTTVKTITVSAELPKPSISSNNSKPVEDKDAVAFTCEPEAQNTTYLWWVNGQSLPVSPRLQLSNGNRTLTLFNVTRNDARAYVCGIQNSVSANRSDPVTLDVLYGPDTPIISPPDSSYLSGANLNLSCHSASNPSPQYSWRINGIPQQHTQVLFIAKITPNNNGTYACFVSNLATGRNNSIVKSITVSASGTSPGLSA
Procedure: (§1) Viability of NK92 cells or tumor cells (MKN-45, LS180) was checked and cells were re-suspended and adjusted to a density of 1 mio cells/ml. 100 μl per well of this cell suspension (containing 0.1 mio cells) were seeded into a 96 well round bottom plate. The plate was centrifuged for 4 min at 400×g and the supernatant was removed. Then 40 μl of the diluted antibodies or FACS buffer were added to the cells and incubated for 30 min at 4° C. After the incubation the cells were washed twice with 150 μl FACS buffer per well. […] The cells were incubated for an additional 30 min at 4° C. To remove unbound antibody, the cells were washed again twice with 150 μl per well FACS buffer. To fix the cells, 100 μl of FACS buffer containing 1% PFA were added to the wells. Before measuring, the cells were re-suspended in 150 μl FACS buffer. The fluorescence was measured using a BD flow cytometer.

[3] = target: T2, CEA expressed on LS180 tumor cells; assay: as above; remark: listed apart in the source
Procedure: as §1

[4] = target: T1, human NKG2D expressed on cells; assay: flow cytometry on NKG2D-positive NK92 cells, anti-human Fc secondary antibody
Procedure: as §1

[5] = target: T1, human NKG2D expressed on cells; assay: flow cytometry on NK92 cells, PE anti-human Fc secondary antibody
Procedure: The anti-NKG2D antibodies P1AE4980, C26 and ADI27743 from Example 21 were tested for binding to NKG2D on NK92 cells.
Viability of NK92 cells was checked and cells were re-suspended and adjusted to a density of 1.5 mio cells/ml. 100 μl of this cell suspension (containing 0.15 mio cells) were seeded into a 96 well round bottom plate. The plate was centrifuged for 4 min at 400×g and the supernatant was removed. Then 40 μl of the diluted antibodies or FACS buffer were added to the cells and incubated for 30 min at 4° C. After the incubation the cells were washed twice with 150 μl FACS buffer per well. […] The cells were incubated for an additional 30 min at 4° C. To remove unbound antibody the cells were washed again twice with 150 μl per well FACS buffer. For the measurement, the cells were re-suspended in 150 μl FACS buffer. The fluorescence was measured using a BD flow cytometer.

[6] = target: T1, human NKG2D expressed on cells; assay: as above

B1: NKG2D×CEA bispecific antibody, anti-NKG2D 320 / anti-CEA B9, J format (bispecific antibody, V domains shown)
VH 1: EVQLLESGGGLVQPGGSLRLSCATSGFTFSDYAMSWVRQAPGKGLEWVSYNSFSVGSTDYADSVKGRFTISRDNSKNTLYLQMNSLRAEDTAVYYCSKHSGNYYTGPFHYWGQGTLVTVSS
VL 1: DIQLTQSPSFLSASVGDRVTITCRASQGISSYLAWYQQKPGKAPKLLIYAASSLESGVPSRFSGSGSGTDFTLTISSLQPEDFATYYCQQSYSTPITFGQGTRLEIK
VH 2: VQLVESGGGLVQPGRSLRLSCAASGFTVSSYWMHWVRQAPGKGLEWVGFIRNKANGGTTEYAASVKGRFTISRDDSKNTLYLQMNSLRAEDTAVYYCARDRGLRFYFDYWGQGTTVTVSS
VL 2: QAVLTQPASLSASPGASASLTCTLRRGINVGAYSIYWYQQKPGSPPQYLLRYKSDSDKQQGSGVSSRFSASKDASANAGILLISGLQSEDEADYYCMIWHSGASAVFGGGTKLTVL
notes: also called format J (320); tetravalent construct J
For B1, the “EC50 (read off the curve)” value [1] was roughly 6 nM.

B2: NKG2D×CEA bispecific antibody, anti-NKG2D 320 / anti-CEA B9, I format (bispecific antibody, V domains shown)
VH 1: EVQLLESGGGLVQPGGSLRLSCATSGFTFSDYAMSWVRQAPGKGLEWVSYNSFSVGSTDYADSVKGRFTISRDNSKNTLYLQMNSLRAEDTAVYYCSKHSGNYYTGPFHYWGQGTLVTVSS
VL 1: DIQLTQSPSFLSASVGDRVTITCRASQGISSYLAWYQQKPGKAPKLLIYAASSLESGVPSRFSGSGSGTDFTLTISSLQPEDFATYYCQQSYSTPITFGQGTRLEIK
VH 2: VQLVESGGGLVQPGRSLRLSCAASGFTVSSYWMHWVRQAPGKGLEWVGFIRNKANGGTTEYAASVKGRFTISRDDSKNTLYLQMNSLRAEDTAVYYCARDRGLRFYFDYWGQGTTVTVSS
VL 2: QAVLTQPASLSASPGASASLTCTLRRGINVGAYSIYWYQQKPGSPPQYLLRYKSDSDKQQGSGVSSRFSASKDASANAGILLISGLQSEDEADYYCMIWHSGASAVFGGGTKLTVL
notes: also called format I (320); I format with antibody 320
With B2 the “EC50 (read off the curve)” value [1] was roughly 10 nM.

B3: NKG2D×CEA bispecific antibody, anti-NKG2D 320 / anti-CEA B9, L format (bispecific antibody, V domains shown)
VH 1: EVQLLESGGGLVQPGGSLRLSCATSGFTFSDYAMSWVRQAPGKGLEWVSYNSFSVGSTDYADSVKGRFTISRDNSKNTLYLQMNSLRAEDTAVYYCSKHSGNYYTGPFHYWGQGTLVTVSS
VL 1: DIQLTQSPSFLSASVGDRVTITCRASQGISSYLAWYQQKPGKAPKLLIYAASSLESGVPSRFSGSGSGTDFTLTISSLQPEDFATYYCQQSYSTPITFGQGTRLEIK
VH 2: VQLVESGGGLVQPGRSLRLSCAASGFTVSSYWMHWVRQAPGKGLEWVGFIRNKANGGTTEYAASVKGRFTISRDDSKNTLYLQMNSLRAEDTAVYYCARDRGLRFYFDYWGQGTTVTVSS
VL 2: QAVLTQPASLSASPGASASLTCTLRRGINVGAYSIYWYQQKPGSPPQYLLRYKSDSDKQQGSGVSSRFSASKDASANAGILLISGLQSEDEADYYCMIWHSGASAVFGGGTKLTVL
notes: also called format L (320)
B3 was tested, and the “EC50 (read off the curve)” value [2] was roughly 10 nM.

B4: anti-CEA antibody B9 (IgG) (antibody, V domains shown)
VH: VQLVESGGGLVQPGRSLRLSCAASGFTVSSYWMHWVRQAPGKGLEWVGFIRNKANGGTTEYAASVKGRFTISRDDSKNTLYLQMNSLRAEDTAVYYCARDRGLRFYFDYWGQGTTVTVSS
VL: QAVLTQPASLSASPGASASLTCTLRRGINVGAYSIYWYQQKPGSPPQYLLRYKSDSDKQQGSGVSSRFSASKDASANAGILLISGLQSEDEADYYCMIWHSGASAVFGGGTKLTVL
notes: IgG
In the case of B4, the “EC50 (read off the curve)” value [3] is reported as roughly 2 nM and the “EC50 (read off the curve)” value [2] is reported as roughly 2 nM.

B5: NKG2D×CEA bispecific antibody, anti-NKG2D 395 (C50S) / anti-CEA B9, I format (bispecific antibody, V domains shown)
VH 1: QEQLEQSGGGLVTPGGSLKLCCTASGFDFNTFWMTWVRQAPGKGLEWIGSIHGGSGSRDYASWVNGRFTLSRDIDQSTACLQVNSLTAADTAMYYCARPGYRSWSKTFDLWGQGTMVTVSS
VL 1: DIQMTQSPSSLSASVGDRVTITCRASQDISGALNWYQQKPGKAPNLLIYAASSLQSGVPSRFSGSGSGTDYTLTISSLQPEDFATYYCQQANSFPLTFGGGTKVEIK
VH 2: VQLVESGGGLVQPGRSLRLSCAASGFTVSSYWMHWVRQAPGKGLEWVGFIRNKANGGTTEYAASVKGRFTISRDDSKNTLYLQMNSLRAEDTAVYYCARDRGLRFYFDYWGQGTTVTVSS
VL 2: QAVLTQPASLSASPGASASLTCTLRRGINVGAYSIYWYQQKPGSPPQYLLRYKSDSDKQQGSGVSSRFSASKDASANAGILLISGLQSEDEADYYCMIWHSGASAVFGGGTKLTVL
notes: also called bivalent I format
For B5, the “EC50 (read off the curve)” value [4] was roughly 2 nM.

B6: anti-NKG2D antibody C26 IgG (PG LALA) (antibody, V domains shown)
VH: QVQLQQWGAGLLKPSETLSLTCAVYGGSFSGYYWSWIRQPPGKGLEWIGEIDHSGSTNYNPSLKSRVTISVDTSKNQFSLKLSSVTAADTAVYYCARARGPWSFDPWGQGTLVTVSS
VL: DIQMTQSPSTLSASVGDRVTITCRASQSISSWLAWYQQKPGKAPKLLIYKASSLESGVPSRFSGSGSGTEFTLTISSLQPDDFATYYCQQYGSFPITFGGGTKVEIKR
notes: Human IgG1 with PGLALA; variable domains from WO 2018/148445
B6: binds [5].

B7: anti-NKG2D antibody ADI27743 IgG (PG LALA) (antibody, V domains shown)
VH: QVQLQQWGAGLLKPSETLSLTCAVYGGSFSGYYWSWIRQPPGKGLEWIGEIDHSGSTNYNPSLKSRVTISVDTSKNQFSLKLSSVTAADTAVYYCARARGPWSFDPWGQGTLVTVSS
VL: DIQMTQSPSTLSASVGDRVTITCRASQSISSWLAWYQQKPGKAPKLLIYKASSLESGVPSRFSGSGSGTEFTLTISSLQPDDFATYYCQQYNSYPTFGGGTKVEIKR
notes: as for B6
B7: binds [5].

B8: anti-NKG2D antibody P1AE4980 (IgG) (antibody, V domains shown)
VH: QEQLVQSGAEVKKPGESLKISCKGSGFDFNTFWMTWVRQMPGKGLEWMGSIHGGSGSRDYSPSFQGQVTISADIDQSTAYLQWSSLKASDTAMYYCARPGYRSWSKTFDLWGQGTTVTVSS
VL: DIQMTQSPSSLSASVGDRVTITCRASQDISGALNWYQQKPGKAPNLLIYAASSLQSGVPSRFSGSGSGTDYTLTISSLQPEDFATYYCQQANSFPLTFGGGTKVEIK
notes: Tested as IgG beside C26 and ADI27743 (human IgG1 PGLALA)
B8: binds [5].

B9: bispecific NKG2D×CEA antibody in M format, ADI27743 / huA5B7 (bispecific antibody, human IgG1, kappa, L234A L235A)
heavy 1: not shown
light 1: QVQLQQWGAGLLKPSETLSLTCAVYGGSFSGYYWSWIRQPPGKGLEWIGEIDHSGSTNYNPSLKSRVTISVDTSKNQFSLKLSSVTAADTAVYYCARARGPWSFDPWGQGTLVTVSSASVAAPSVFIFPPSDEQLKSGTASVVCLLNNFYPREAKVQWKVDNALQSGNSQESVTEQDSKDSTYSLSSTLTLSKADYEKHKVYACEVTHQGLSSPVTKSFNRGEC
heavy 2: not shown
light 2: EIVLTQSPATLSLSPGERATLSCRASSSVTYIHWYQQKPGQAPRSWIYATSNLASGIPARFSGSGSGTDFTLTISSLEPEDFAVYYCQHWSSKPPTFGQGTKLEIKRTVAAPSVFIFPPSDRKLKSGTASVVCLLNNFYPREAKVQWKVDNALQSGNSQESVTEQDSKDSTYSLSSTLTLSKADYEKHKVYACEVTHQGLSSPVTKSFNRGEC
notes: also called ADI27743 bispecific
B9: binds [6].
